From PMC12510010 (The Journal of Biological Chemistry, 2025)
“Also recorded” adds a separate entry of the source. Ends that are not written are not given here.

Key:
[1] = target: Cyan- and yellow-tagged GCC catalytic domains (human); experiment: FRET or BRET; sensitized FRET in HEK 293 cells between Cyan-GCCcat and Yellow-GCCcat, co-expressed with pCDNA3 empty vector, HA-NHERF3, HA-NHERF4, HA-NHERF4 PDZ1 or HA-NHERF4 delPDZ1; STc (1 uM) stimulation
[2] = tested on: CFTR-dependent fluid secretion, mouse enteroids; type: cell-based
GCC = type: biochemical, human
[3] = tested on: CFTR-dependent fluid secretion, organoids; settings: cited from earlier work
[4] = tested on: FLAG-GCC in HEK-293 cells; type: cell-based
[5] = tested on: C-terminal 50 amino acids of MRP4 (MRP4C50); type: binding
[6] = tested on: GCC catalytic domains (Cyan-GCCcat and Yellow-GCCcat); type: cell-based
[7] = tested on: C-terminal 50 amino acids of GCC (GCCC50); type: binding
MRP4C50 and GCCC50 = type: binding; settings: 4 °C
HA-GCC = HA-GCC (human, UniProt P25092 24-1073); experiment: cell-based or functional assay
[8] = target: T1, GCC catalytic domain (GCCcat, amino acids 824-954), purified (human, UniProt P25092 824-954); experiment: HRP-based binding assay on S-beads; 20 ug purified GCCcat immobilised on S-beads, 7.5 uM Biotin N4-195 overnight at 4 C, washed with PBS 0.2% Triton-X-100, streptavidin HRP with TMB, absorbance at 450 nm; control: S-beads without GCCcat; settings: both partners purified
T1 construct: also called GCC catalytic subunit

GST-NHERF1 = target: T2, GST-NHERF1 (human, UniProt O14745 1-358); experiment: far-Western, overlay or dot blot; dot blot: GST-NHERF1-4 and GST on nitrocellulose, GCCC50 overlaid, probed with in-house anti-GCC rabbit polyclonal antibody; saturating NHERF, > 1.2 pmoles; settings: both partners purified
T2 construct: also called EBP50; GST-tagged NHERF1
T2 sequence (looked up): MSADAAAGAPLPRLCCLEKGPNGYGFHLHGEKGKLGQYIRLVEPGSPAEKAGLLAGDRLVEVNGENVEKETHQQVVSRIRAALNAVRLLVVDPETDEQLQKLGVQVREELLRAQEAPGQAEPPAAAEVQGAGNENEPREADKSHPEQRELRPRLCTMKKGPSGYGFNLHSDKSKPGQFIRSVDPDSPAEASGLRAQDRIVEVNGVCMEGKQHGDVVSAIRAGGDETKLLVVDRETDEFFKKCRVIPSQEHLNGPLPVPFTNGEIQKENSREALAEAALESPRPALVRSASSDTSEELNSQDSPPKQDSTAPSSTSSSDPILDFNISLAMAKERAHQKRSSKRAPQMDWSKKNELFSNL

GST-NHERF3 [9] = target: T3, GST-NHERF3 (human, UniProt Q5T2W1 1-519); experiment: as above; settings: both partners purified
T3 construct: also called PDZK1; CAP70
T3 sequence (looked up): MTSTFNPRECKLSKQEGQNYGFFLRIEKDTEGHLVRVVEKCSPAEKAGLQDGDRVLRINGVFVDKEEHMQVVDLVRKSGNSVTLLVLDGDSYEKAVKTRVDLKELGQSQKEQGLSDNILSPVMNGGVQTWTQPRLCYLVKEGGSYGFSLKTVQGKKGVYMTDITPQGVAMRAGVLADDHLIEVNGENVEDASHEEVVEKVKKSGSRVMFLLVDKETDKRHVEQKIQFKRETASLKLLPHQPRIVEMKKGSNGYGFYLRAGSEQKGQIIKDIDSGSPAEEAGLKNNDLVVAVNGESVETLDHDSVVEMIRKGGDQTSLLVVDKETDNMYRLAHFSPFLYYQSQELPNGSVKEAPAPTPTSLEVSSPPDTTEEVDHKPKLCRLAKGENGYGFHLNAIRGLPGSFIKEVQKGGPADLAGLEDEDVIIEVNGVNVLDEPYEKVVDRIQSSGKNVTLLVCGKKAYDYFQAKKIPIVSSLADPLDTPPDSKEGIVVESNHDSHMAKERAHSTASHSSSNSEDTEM

GST-NHERF2 = target: T4, GST-NHERF2 (human, UniProt Q15599 1-337); experiment: as above; settings: both partners purified
T4 construct: also called E3KARP; GST-tagged NHERF2

GST-NHERF3 [10] = target: T3, GST-NHERF3; experiment: far-Western, overlay or dot blot; slot blot (macromolecular complex assay): GST-His-S-MRP4-C50 (0, 5 and 20 ug) and GST alone on nitrocellulose, 5 ug GST-NHERF3 overnight at 4 C, then 0.5 ug purified Flag-GCC-C50 at 4 C; detected with a GCC C-terminal specific antibody; settings: both partners purified

T1 sequence (P25092 824-954): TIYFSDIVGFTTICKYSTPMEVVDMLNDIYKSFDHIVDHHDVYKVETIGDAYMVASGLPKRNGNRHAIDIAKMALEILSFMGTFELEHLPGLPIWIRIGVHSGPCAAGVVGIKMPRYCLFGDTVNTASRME

In the case of “Cyan- and yellow-tagged GCC catalytic domains (domain or fragment)”, the FRET efficiency of GCCcat oligomerization (control, empty vector) [1] is reported as 0.54.

Work on HA-NHERF4 PDZ1 (domain or fragment) yielded an FRET efficiency of GCCcat oligomerization with this protein co-expressed [1] of 0.21.

In the case of “H-PRCDRVLHHFLRAALLQEAR-OH [N4-scrambled, scrambled peptide with same amino acid composition as N4-110 and N4-195 combined]”, the “STc-stimulated secretion with scrambled peptide, high concentrations” value [2] is reported as “some non-specific inhibition was observed at high concentrations” and the “STc-stimulated secretion with scrambled peptide, lower concentrations” value [2] is reported as “did not reduce STc-stimulated secretion at lower concentrations”.

With “H-LERPRFCLL-OH [N4-110, peptide in NHERF4 PDZ1 domain homologous to GCC catalytic domain]” the “GCC activity (cGMP) in the presence of single peptide” value (GCC) was “did not affect GCC activity”.

For H-RHAHDVARAQL-OH [N4-195], the “GCC activity (cGMP) in the presence of single peptide” value (GCC) was “did not affect GCC activity”.

In the case of `C=C[C@@]1(C)CC(=O)[C@]2(O)[C@@]3(C)[C@@H](O)CCC(C)(C)[C@@H]3[C@H](O)[C@H](OC(C)=O)[C@@]2(C)O1` [Forskolin], the “Fluid secretion response (organoid swelling)” value [3] is listed as “highly robust fluid secretion response”.

In the case of “NHERF3: PDZ adaptor protein; GST-fusion protein or HA-tagged construct”, the “Binding to GCC with increasing concentrations of STc” value [4] is reported as “not affected”, the “Binding order of NHERFs to MRP4” value [5] is reported as “NHERF3> NHERF2≥ NHERF1> NHERF4” and the “FRET efficiency of GCCcat oligomerization” value [6] is reported as 0.51 ± 0.08. The “Binding order of NHERFs to GCC” value [7] was “highest binding affinity for GCC among the NHERF proteins; also recorded: NHERF3> NHERF1> NHERF2> NHERF4” and the “Macromolecular complex formation of GCC and MRP4 via NHERF3” value (MRP4C50 and GCCC50) was “GCC could exist in a macromolecular complex with MRP4 via NHERF3”.

B1: GST-NHERF4 (natural protein, human, UniProt Q86UT5 1-571, looked up)
chain: MVTPSPPGNHSLSLEAPRLHTASDLLGNHSLGLPLITALVGSRDRRGRVFSPVPVPLPTNPTTQHPTRQKLPSTLSGHRVCQAHGEPVLGLCPLLPLFCCPPHPPDPWSLERPRFCLLSKEEGKSFGFHLQQELGRAGHVVCRVDPGTSAQRQGLQEGDRILAVNNDVVEHEDYAVVVRRIRASSPRVLLTVLARHAHDVARAQLGEDAHLCPTLGPGVRPRLCHIVKDEGGFGFSVTHGNQGPFWLVLSTGGAAERAGVPPGARLLEVNGVSVEKFTHNQLTRKLWQSGQQVTLLVAGPEVEEQCRQLGLPLAAPLAEGWALPTKPRCLHLEKGPQGFGFLLREEKGLDGRPGQFLWEVDPGLPAKKAGMQAGDRLVAVAGESVEGLGHEETVSRIQGQGSCVSLTVVDPEADRFFSMVRLSPLLFLENTEAPASPRGSSSASLVETEDPSLEDTSVPSVPLGSRQCFLYPGPGGSYGFRLSCVASGPRLFISQVTPGGSAARAGLQVGDVILEVNGYPVGGQNDLERLQQLPEAEPPLCLKLAARSLRGLEAWIPPGAAEDWALASDLL
In the case of B1, the FRET efficiency of GCCcat oligomerization with this protein co-expressed [1] is reported as 0.17 and the “inhibition of the cGMP formation of HA-GCC immunoprecipitated on HA beads by 200 nM purified GST-NHERF4, relative to the GST-only control” value (HA-GCC) is reported as 38%.

RHAHDVARAQL (not fully specified (N-terminus); also: biotin label, position not given here, also called N4-Biotin) [Biotin-N4-195 peptide]: binds [8].

B2: NHERF2: PDZ adaptor protein; purified as GST-fusion protein (protein)
chain: MAAPEPLRPRLCRLVRGEQGYGFHLHGEKGRRGQFIRRVEPGSPAEAAALRAGDRLVEVNGVNVEGETHHQVVQRIKAVEGQTRLLVVDQETDEELRRRQLTCTEEMAQRGLPPAHDPWEPKPDWAHTGSHSSEAGKKDVSGPLRELRPRLCHLRKGPQGYGFNLHSDKSRPGQYIRSVDPGSPAARSGLRAQDRLIEVNGQNVEGLRHAEVVASIKAREDEARLLVVDPETDEHFKRLRVTPTEEHVEGPLPSPVTNGTSPAQLNGGSACSSRSDLPGSDKDTEDGSAWKQDPFQESGLHLSPTAAEAKEKARAMRVNKRAPQMDWNRKREIFSNF
modifications: left off: GST, end not stated, kept
For B2, the “Binding order of NHERFs to MRP4” value [5] was “NHERF3> NHERF2≥ NHERF1> NHERF4” and the “Binding order of NHERFs to GCC” value [7] was “NHERF3> NHERF1> NHERF2> NHERF4”.

B3: NHERF1: PDZ adaptor protein; purified as GST-fusion protein (protein)
chain: T2 sequence (looked up)
modifications: left off: GST, end not stated, kept
For B3, the “Binding order of NHERFs to MRP4” value [5] was “NHERF3> NHERF2≥ NHERF1> NHERF4” and the “Binding order of NHERFs to GCC” value [7] was “NHERF3> NHERF1> NHERF2> NHERF4”.

AEFSDMIANSLQKRQAAGIRSQKPRRVASYKKGTLEYLQLNTTDKESTYF (domain or fragment, human, UniProt P25092 1024-1073, looked up) [C-terminal 50 amino acids of GCC (GCCC50)]: binds (GST-NHERF1); binds (GST-NHERF3 [9]); binds (GST-NHERF2).

AEFSDMIANSLQKRQAAGIRSQKPRRVASYKKGTLEYLQLNTTDKESTYF (domain or fragment, human, UniProt P25092 1024-1073, looked up, also called GCCC50) [Flag-GCC-C-terminal 50 aa]: binds (GST-NHERF3 [10]).
